Laboratory results taken from paper doi:10.1101/2025.06.25.661518.

What was measured:
[1] = system: BALF2 wild type (Epstein-Barr virus (EBV)); assay: fluorescence anisotropy; details: not in material (Methods absent); anisotropy titrations in triplicate
[2] = system: BALF2 Δ52 (Epstein-Barr virus (EBV)); assay: fluorescence anisotropy; details: not in material (Methods absent); anisotropy titrations in triplicate

16-mer ssDNA
Kd [1]: 232 nM | Kd [2]: 1040 nM
